According to patent US20190330277A1:

What was measured:
[1] = biological target: bRSV RB94 DSCav1 (bovine respiratory syncytial virus, strain RB94) (UniProt P23728); test: biolayer interferometry (Octet), variant on Ni-NTA tip, Fab in solution
[2] = biological target: bRSV RB94 DSCav1 (bovine respiratory syncytial virus, strain RB94) (UniProt P23728)
[3] = biological target: bRSV RB94 DSCav1 (bovine respiratory syncytial virus, strain RB94) (UniProt P23728); test: biolayer interferometry Octet binding analysis
[4] = biological target: 391-2 sc9 DS-Cav1 98C-362C; test: ELISA, variant from culture supernatant on Ni-NTA plate
[5] = biological target: 391-2-DS-Cav1-sc9 100C-362C; test: as above
[6] = biological target: 391-2-DS-Cav1-sc9 99C-361C; test: as above
[7] = biological target: 391-2-DS-Cav1-sc9 99C-362C; test: as above
[8] = biological target: 391-2-DS-Cav1-sc9deleteFS 98C-362C; test: as above
[9] = biological target: 391-2-DS-Cav1_ sc9_I28C-G464C; test: as above
[10] = biological target: RB94 sc9 DS-CAV1 N183GC-N428C L373R Long K226L; test: as above
[11] = biological target: RB94 sc9 DS-CAV1 N183GC-N428C L373R Long; test: as above
[12] = biological target: RB94 sc9 DS-CAV1 N183GC-N428C L373R; test: as above
[13] = biological target: 391-2-DS-Cav1-BZGJ9deleteFS; test: ELISA, variant from culture supernatant on Ni-NTA plate [continued]

Chain of MPE8 antibody (VH): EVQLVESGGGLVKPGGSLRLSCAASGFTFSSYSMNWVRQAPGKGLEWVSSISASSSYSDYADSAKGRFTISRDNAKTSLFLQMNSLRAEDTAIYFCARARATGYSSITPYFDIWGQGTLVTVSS
Chain of MPE8 antibody (VL): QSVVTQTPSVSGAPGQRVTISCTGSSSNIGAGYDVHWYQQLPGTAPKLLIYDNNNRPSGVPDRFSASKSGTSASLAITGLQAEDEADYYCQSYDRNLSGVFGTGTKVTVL

AM14 Fab
Kd [1]: 4.9 nM

MPE8 Fab
Kd [1]: 0.2 nM

MPE8 antibody
ELISA binding value [2]: 0.199
response level (biolayer interferometry) [3]: 0.5 nm
ELISA binding value [4]: 0.48
ELISA binding value [5]: 0.131
ELISA binding value [6]: 0.198
ELISA binding value [7]: 0.311
ELISA binding value [8]: 0.448
ELISA binding value [9]: 0.203
ELISA binding value [10]: 0.293
ELISA binding value [11]: 0.335
ELISA binding value [12]: 0.322
ELISA binding value [13]: 0.0675

motavizumab Fab
Kd [1]: 0.9 nM
